Data taken from patent US7514594B2, “Transgenic animal model of bone mass modulation” (Wyeth, priority 2003, dated 2009).

Tests used:
[1] = test system: ovariectomized het and ntg mice; test: ovx-induced osteopenia in het and ntg mice treated with 17β-estradiol; assay type: in vivo, mouse; settings: both het and ntg; ovariectomized at 9 weeks; 10 μg/kg/day 17β-estradiol for 35 days
Protocol: To determine whether the mutation had any effect on ovx-induced osteopenia, het and ntg mice were ovariectomized at 9 weeks of age and treated for 35 days with vehicle or 10 μg/kg/day 17β-estradiol (E2). The percent change in total, trabecular and cortical density in het and ntg ovx mice from those values in their respective sham operated controls were determined. […] Ovariectomy induced a 14.3% decrease in total BMD (696±6 to 597±7 mg/cm^3) and a 26.3% decrease in trabecular BMD (445±9 to 328±7 mg/cm^3) in the het group and a 14.9% decrease in total BMD (470±10 to 400±7 mg/cm^3) and 37.6% decrease in trabecular BMD (132±4 to 82±2 mg/cm^3) in the ntg group.

[2] = test system: canonical Wnt signaling; settings: cited from earlier work
[3] = biological target: T1, LRP6 (Homo sapiens, UniProt O75581); test: Dkk-1 binding to LRP6; settings: observed by the inventors
Excerpt: (§1) It may be that the reduced effectiveness of Dkk inhibition of LRP5 which is observed for HBM is not necessarily mediated by enhancing or preventing the binding of Dkk to LRP5/LRP6/HBM. More than one mechanism may be involved. […] Further, it has been observed that different members of the Dkk family differentially affect LRP5/LRP6/HBM activity. Rather, the more preferred approach is to develop a drug or therapy which results in the desired protective benefits by reproducing as nearly as possible the subtle effect of HBM. The ability to refine and test potential drugs and therapies by comparing their effects to an animal model of HBM is among the major features of the present invention.

[4] = biological target: LRP5 (Homo sapiens, UniProt O75197); test: Dkk-1 binding to LRP5; settings: observed by the inventors
Excerpt: 1, 2002, and 60/361,293 filed Mar. 4, 2002. The two-hybrid screen is a common procedure in the art, which is described, for example, by Gietz et al., Mol. Cell. Biochem. 172:67-79 (1997); Young, Biol. Reprod. 58:302-11 (1998); Brent and Finley, Ann. Rev. Genet. 31:663-704 (1997); and Lu and Hannon, eds., Yeast Hybrid Technologies, Eaton Publishing, Natick Mass., (2000).
as §1

[5] = test system: HBM-mediated Wnt signaling; test: Dkk-1 repression of HBM-mediated Wnt signaling; assay type: cell-based; settings: compared with LRP5-mediated signaling
Excerpt: (§2) 1, 2002, and 60/361,293 filed Mar. 4, 2002. This observation is of particular interest because the HBM mutation in LRP5 is a gain of function or activation mutation. That is, Wnt signaling, via the canonical pathway, is enhanced with HBM versus LRP5. Not wishing to be bound by theory, it is believed that this interaction provides an explanation of the developmental signaling differences between HBM and the more common LRP5/LRP6.

[6] = biological target: HBM (Homo sapiens, UniProt O75197, G171V); test: Dkk-1 binding to HBM; settings: observed by the inventors
Excerpt: as §1

[7] = test system: LRP5-mediated Wnt signaling; test: Dkk-1 repression of LRP5-mediated Wnt signaling; assay type: cell-based
Excerpt: as §2

[8] = test system: Wnt pathway; test: Xenopus embryo assay of Wnt pathway stimulation; assay type: in vivo; settings: for stimulation of the Wnt pathway: in combination with Wnt5a
Excerpt: Axin was also identified from the two hybrid experiments. This protein is involved in inhibition of the Wnt signaling pathway and interacts with the tumor suppressor APC. There is a link here with the focal adhesion signaling described above: one common step in the two pathways involves inhibition of glycogen synthase kinase 3, which in turn results in the activation of β-catenin/Lef-1 and AP-1 transcription factors. Axin/APC are involved in this as well as integrin linked kinase. The Wnt pathway has a role in determining cell fates during embryogenesis. If inappropriately activated, the Wnt pathway may also lead to cancer. The Wnt pathway also seems to have a role in cytoskeletal rearrangements. […] A model depicting LRP5 involvement in focal adhesion signaling is depicted in FIG. 15.

[9] = test system: LRP5 G171V transgenic (het) and non-transgenic littermate (ntg) mice; test: hPTH treatment of LRP5 G171V transgenic and non-transgenic mice, femoral density by pQCT; assay type: in vivo, mouse; settings: for Percent Change in Bone Mass Density After 30 Days of hPTH Treatment, cortical, ntg / Percent Change in Bone Mass Density After 30 Days of hPTH Treatment, cortical, transgenic / Percent Change in Bone Mass Density After 30 Days of hPTH Treatment, total, ntg / Percent Change in Bone Mass Density After 30 Days of hPTH Treatment, total, transgenic / Percent Change in Bone Mass Density After 30 Days of hPTH Treatment, trabecular, ntg / Percent Change in Bone Mass Density After 30 Days of hPTH Treatment, trabecular, transgenic: left femur pQCT, vs vehicle controls
Protocol: In order to further examine increases in bone density that were detected in select transgenic lines through monitoring of the animals by non-invasive bone imaging, necropsies were performed on animals of these lines at 5 and 9 weeks of age for direct bone densitometric and histologic analysis. The left femur was isolated, cleaned and positioned in an XCT Research peripheral Quantitative Computed Tomograph (pQCT; Stradtec Medizintechnik, Pforzheim, Germany). The distal end of the femur was located and pQCT scanning was initiated 2.5 mm proximal from this point for total and trabecular measurements. The pQCT scan for cortical measurements was initiated 3.5 mm proximal from the first scan (i.e., 6 mm proximal from the distal end). […] The soft tissue was automatically removed using an iterative algorithm, and the density of the remaining bone (total density) in the first slice was determined. The outer 55% of the bone was then peeled away in a concentric spiral and the density of the remaining bone (trabecular density) of the first slice was reported in mg/cm^3. In the second slice, the boundary between cortical and trabecular bone was determined using an iterative algorithm, and the density of the cortical bone was determined.
[…] Total, trabecular and cortical densities were measured in excised left femur by pQCT. PTH response was normalized to the bone densities of the vehicle group and expressed as percent change from their respective vehicle controls.

[10] = biological target: T1, LRP6; settings: Mao et al.; cited from earlier work
[11] = biological target: T1, LRP6; settings: Semenov et al.; cited from earlier work
[12] = extracellular domains, absence of Wnt5a
[13] = ntg animals, treatment with PTH

T1 sequence (O75581 20-1613, species assumed): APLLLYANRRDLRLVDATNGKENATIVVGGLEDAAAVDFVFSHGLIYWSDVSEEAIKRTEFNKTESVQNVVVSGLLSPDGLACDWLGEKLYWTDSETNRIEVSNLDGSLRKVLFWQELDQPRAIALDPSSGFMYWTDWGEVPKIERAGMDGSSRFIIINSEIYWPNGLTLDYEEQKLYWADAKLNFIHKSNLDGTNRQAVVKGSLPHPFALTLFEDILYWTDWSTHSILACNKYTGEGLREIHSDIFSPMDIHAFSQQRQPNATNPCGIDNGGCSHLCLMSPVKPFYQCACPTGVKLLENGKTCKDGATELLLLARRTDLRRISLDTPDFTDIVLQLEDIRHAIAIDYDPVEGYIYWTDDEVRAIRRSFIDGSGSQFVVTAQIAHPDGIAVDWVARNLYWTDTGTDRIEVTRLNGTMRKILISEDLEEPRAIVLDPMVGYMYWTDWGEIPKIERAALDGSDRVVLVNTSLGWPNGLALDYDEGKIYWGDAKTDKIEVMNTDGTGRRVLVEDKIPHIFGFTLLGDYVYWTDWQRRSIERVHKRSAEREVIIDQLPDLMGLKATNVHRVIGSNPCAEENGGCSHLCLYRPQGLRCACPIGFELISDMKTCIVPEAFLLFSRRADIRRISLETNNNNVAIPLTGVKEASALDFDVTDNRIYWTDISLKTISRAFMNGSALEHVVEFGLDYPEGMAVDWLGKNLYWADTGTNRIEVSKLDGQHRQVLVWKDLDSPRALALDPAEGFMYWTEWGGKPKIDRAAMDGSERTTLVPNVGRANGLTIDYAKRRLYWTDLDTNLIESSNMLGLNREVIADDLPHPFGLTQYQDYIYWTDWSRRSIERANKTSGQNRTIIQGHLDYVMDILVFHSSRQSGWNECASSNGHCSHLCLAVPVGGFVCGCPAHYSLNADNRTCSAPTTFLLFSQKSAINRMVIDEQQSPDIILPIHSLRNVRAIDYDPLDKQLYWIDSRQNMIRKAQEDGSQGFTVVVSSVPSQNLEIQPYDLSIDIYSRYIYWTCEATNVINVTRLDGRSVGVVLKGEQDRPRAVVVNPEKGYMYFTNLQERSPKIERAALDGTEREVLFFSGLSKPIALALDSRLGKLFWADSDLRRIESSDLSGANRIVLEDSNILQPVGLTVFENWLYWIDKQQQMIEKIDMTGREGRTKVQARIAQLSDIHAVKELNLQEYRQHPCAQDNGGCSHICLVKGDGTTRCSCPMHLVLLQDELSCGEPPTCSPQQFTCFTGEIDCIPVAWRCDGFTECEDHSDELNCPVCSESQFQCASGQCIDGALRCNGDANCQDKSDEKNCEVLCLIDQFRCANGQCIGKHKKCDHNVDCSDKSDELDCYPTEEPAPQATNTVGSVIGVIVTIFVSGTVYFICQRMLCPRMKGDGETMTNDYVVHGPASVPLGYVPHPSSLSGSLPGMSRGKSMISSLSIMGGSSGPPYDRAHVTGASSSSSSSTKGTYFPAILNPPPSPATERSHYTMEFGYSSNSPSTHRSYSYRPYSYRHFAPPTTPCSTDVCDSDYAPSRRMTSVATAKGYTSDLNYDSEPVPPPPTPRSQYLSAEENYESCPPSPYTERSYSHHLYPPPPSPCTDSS
Sequence of HBM (O75197 32-1615 G171V): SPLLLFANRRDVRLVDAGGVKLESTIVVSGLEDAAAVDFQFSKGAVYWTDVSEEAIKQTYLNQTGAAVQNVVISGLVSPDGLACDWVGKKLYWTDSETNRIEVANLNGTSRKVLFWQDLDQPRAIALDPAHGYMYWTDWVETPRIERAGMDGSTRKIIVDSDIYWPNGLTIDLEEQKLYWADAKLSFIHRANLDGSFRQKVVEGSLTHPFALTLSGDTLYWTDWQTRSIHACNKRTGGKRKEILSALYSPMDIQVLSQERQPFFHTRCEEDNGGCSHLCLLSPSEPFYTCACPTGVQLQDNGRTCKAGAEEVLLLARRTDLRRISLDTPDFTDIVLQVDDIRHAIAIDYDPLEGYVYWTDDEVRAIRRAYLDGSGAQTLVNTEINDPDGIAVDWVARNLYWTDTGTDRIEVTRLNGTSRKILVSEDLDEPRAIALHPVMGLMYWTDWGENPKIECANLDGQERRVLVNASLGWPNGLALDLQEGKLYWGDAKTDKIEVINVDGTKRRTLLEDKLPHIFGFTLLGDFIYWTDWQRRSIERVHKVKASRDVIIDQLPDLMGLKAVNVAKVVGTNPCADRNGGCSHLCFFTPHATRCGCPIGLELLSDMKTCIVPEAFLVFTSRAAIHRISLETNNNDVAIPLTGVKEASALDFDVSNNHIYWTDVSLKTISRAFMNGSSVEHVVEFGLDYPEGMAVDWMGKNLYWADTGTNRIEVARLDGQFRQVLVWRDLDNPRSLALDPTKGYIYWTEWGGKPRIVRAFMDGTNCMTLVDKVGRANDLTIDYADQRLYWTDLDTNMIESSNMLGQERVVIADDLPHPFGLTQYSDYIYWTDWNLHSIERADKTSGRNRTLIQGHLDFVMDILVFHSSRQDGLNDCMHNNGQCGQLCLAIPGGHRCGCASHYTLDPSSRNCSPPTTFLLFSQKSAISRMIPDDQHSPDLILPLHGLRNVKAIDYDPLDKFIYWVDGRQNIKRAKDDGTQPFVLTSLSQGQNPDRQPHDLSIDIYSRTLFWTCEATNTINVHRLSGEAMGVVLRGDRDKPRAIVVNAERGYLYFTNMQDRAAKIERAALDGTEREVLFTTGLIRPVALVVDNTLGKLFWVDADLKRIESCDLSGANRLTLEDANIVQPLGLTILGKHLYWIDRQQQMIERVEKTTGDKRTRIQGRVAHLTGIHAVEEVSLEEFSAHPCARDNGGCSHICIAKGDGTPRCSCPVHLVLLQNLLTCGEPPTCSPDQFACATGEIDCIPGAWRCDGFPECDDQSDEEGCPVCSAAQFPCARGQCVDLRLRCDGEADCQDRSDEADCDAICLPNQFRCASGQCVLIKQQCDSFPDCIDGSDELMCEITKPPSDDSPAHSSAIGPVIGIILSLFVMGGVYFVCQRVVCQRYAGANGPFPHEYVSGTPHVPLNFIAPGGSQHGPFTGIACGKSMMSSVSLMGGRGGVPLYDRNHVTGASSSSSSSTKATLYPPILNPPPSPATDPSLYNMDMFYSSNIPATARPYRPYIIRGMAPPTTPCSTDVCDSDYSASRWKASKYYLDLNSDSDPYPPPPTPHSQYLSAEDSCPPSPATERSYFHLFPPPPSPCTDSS
Sequence of LRP5 (O75197 32-1615): as the sequence (O75197 32-1615 G171V) above, with V140G counted along it

Molecule: C[C@]12CC[C@@H]3c4ccc(O)cc4CC[C@H]3[C@@H]1CC[C@@H]2O [E2, 17β-estradiol]
- ovx-induced bone loss [1]: completely prevented

Molecule: Dkk-1: protein dickkopf-1, an antagonist of the Wnt pathway
- canonical Wnt signaling ([2]; Bafico et al., Dkk-1 added at extremely low concentrations (30 pM)): repression
- binding to LRP6 [3]: binds
- binding to LRP5 [4]: binds
- repression of HBM-mediated Wnt signaling [5]: less effective
- binding to HBM [6]: binds
- repression of LRP5-mediated Wnt signaling [7]: able to repress

Molecule: HBM: protein identical to LRP5 except for an alteration of glycine 171 to valine
- stimulation of the Wnt pathway [8]: much greater extent

Molecule: LRP5 ECD: extracellular domain (ECD) of LRP5
- stimulation of Wnt signaling [8, 12]: modest stimulation

Molecule: LRP5: wild-type LRP5 protein (SEQ ID NO: 3)
- stimulation of the Wnt pathway [8]: modestly above the control

B1: human parathyroid hormone (peptide, UniProt P01270 32-115, looked up)
Parathyroid hormone: SVSEIQLMHNLGKHLNSMERVEWLRKKLQDVHNFVALGAPLAPRDAGSQRPRKKEDNVLVESHEKSLGEADKADVNVLTKAKSQ
modifications: Parathyroid hormone
notes: human parathyroid hormone (hPTH), anabolic agent
- Percent Change in Bone Mass Density After 30 Days of hPTH Treatment, cortical, ntg ([9]; Female): 4%
- Percent Change in Bone Mass Density After 30 Days of hPTH Treatment, cortical, transgenic ([9]; Female): −1%
- Percent Change in Bone Mass Density After 30 Days of hPTH Treatment, total, ntg ([9]; Female): 18%
- Percent Change in Bone Mass Density After 30 Days of hPTH Treatment, total, transgenic ([9]; Female): 30%
- Percent Change in Bone Mass Density After 30 Days of hPTH Treatment, trabecular, ntg ([9]; Female): −3%
- Percent Change in Bone Mass Density After 30 Days of hPTH Treatment, trabecular, transgenic ([9]; Female): 59%
- Percent Change in Bone Mass Density After 30 Days of hPTH Treatment, cortical, ntg ([9]; Male, hPTH 100 mg/kg/day sc): 3%
- Percent Change in Bone Mass Density After 30 Days of hPTH Treatment, cortical, transgenic ([9]; Male, hPTH 100 mg/kg/day sc): 2%
- Percent Change in Bone Mass Density After 30 Days of hPTH Treatment, total, ntg ([9]; Male, hPTH 100 mg/kg/day sc): 23%
- Percent Change in Bone Mass Density After 30 Days of hPTH Treatment, total, transgenic ([9]; Male, hPTH 100 mg/kg/day sc): 37%
- Percent Change in Bone Mass Density After 30 Days of hPTH Treatment, trabecular, ntg ([9]; Male, hPTH 100 mg/kg/day sc): 5%
- Percent Change in Bone Mass Density After 30 Days of hPTH Treatment, trabecular, transgenic ([9]; Male, hPTH 100 mg/kg/day sc): 80%
- total femoral BMD ([9]; both het and ntg, treatment with PTH): significant increase
- trabecular bone compartment ([9]; het animals, treatment with PTH): increase
- cortical bone [9, 13]: significant increase
- trabecular BMD [9, 13]: no changes

B2: Dkk-2: Dkk family protein found to directly bind LRP6 (protein, UniProt Q9UBU2 34-259, looked up)
Dickkopf-related protein 2: KLNSIKSSLGGETPGQAANRSAGMYQGLAFGGSKKGKNLGQAYPCSSDKECEVGRYCHSPHQGSSACMVCRRKKKRCHRDGMCCPSTRCNNGICIPVTESILTPHIPALDGTRHRDRNHGHYSNHDLGWQNLGRPHTKMSHIKGHEGDPCLRSSDCIEGFCCARHFWTKICKPVLHQGEVCTKQRKKGSHGLEIFQRCDCAKGLSCKVWKDATYSSKARLHVCQKI
- Kd [10]: 730 pM

B3: HBM ECD: extracellular domain (ECD) of HBM (protein, UniProt O75197 32-1384, looked up, variant G171V)
extracellular domain: SPLLLFANRRDVRLVDAGGVKLESTIVVSGLEDAAAVDFQFSKGAVYWTDVSEEAIKQTYLNQTGAAVQNVVISGLVSPDGLACDWVGKKLYWTDSETNRIEVANLNGTSRKVLFWQDLDQPRAIALDPAHGYMYWTDWVETPRIERAGMDGSTRKIIVDSDIYWPNGLTIDLEEQKLYWADAKLSFIHRANLDGSFRQKVVEGSLTHPFALTLSGDTLYWTDWQTRSIHACNKRTGGKRKEILSALYSPMDIQVLSQERQPFFHTRCEEDNGGCSHLCLLSPSEPFYTCACPTGVQLQDNGRTCKAGAEEVLLLARRTDLRRISLDTPDFTDIVLQVDDIRHAIAIDYDPLEGYVYWTDDEVRAIRRAYLDGSGAQTLVNTEINDPDGIAVDWVARNLYWTDTGTDRIEVTRLNGTSRKILVSEDLDEPRAIALHPVMGLMYWTDWGENPKIECANLDGQERRVLVNASLGWPNGLALDLQEGKLYWGDAKTDKIEVINVDGTKRRTLLEDKLPHIFGFTLLGDFIYWTDWQRRSIERVHKVKASRDVIIDQLPDLMGLKAVNVAKVVGTNPCADRNGGCSHLCFFTPHATRCGCPIGLELLSDMKTCIVPEAFLVFTSRAAIHRISLETNNNDVAIPLTGVKEASALDFDVSNNHIYWTDVSLKTISRAFMNGSSVEHVVEFGLDYPEGMAVDWMGKNLYWADTGTNRIEVARLDGQFRQVLVWRDLDNPRSLALDPTKGYIYWTEWGGKPRIVRAFMDGTNCMTLVDKVGRANDLTIDYADQRLYWTDLDTNMIESSNMLGQERVVIADDLPHPFGLTQYSDYIYWTDWNLHSIERADKTSGRNRTLIQGHLDFVMDILVFHSSRQDGLNDCMHNNGQCGQLCLAIPGGHRCGCASHYTLDPSSRNCSPPTTFLLFSQKSAISRMIPDDQHSPDLILPLHGLRNVKAIDYDPLDKFIYWVDGRQNIKRAKDDGTQPFVLTSLSQGQNPDRQPHDLSIDIYSRTLFWTCEATNTINVHRLSGEAMGVVLRGDRDKPRAIVVNAERGYLYFTNMQDRAAKIERAALDGTEREVLFTTGLIRPVALVVDNTLGKLFWVDADLKRIESCDLSGANRLTLEDANIVQPLGLTILGKHLYWIDRQQQMIERVEKTTGDKRTRIQGRVAHLTGIHAVEEVSLEEFSAHPCARDNGGCSHICIAKGDGTPRCSCPVHLVLLQNLLTCGEPPTCSPDQFACATGEIDCIPGAWRCDGFPECDDQSDEEGCPVCSAAQFPCARGQCVDLRLRCDGEADCQDRSDEADCDAICLPNQFRCASGQCVLIKQQCDSFPDCIDGSDELMCEITKPPSDDSPAHS
modifications: extracellular domain
- stimulation of Wnt signaling ([8]; extracellular domain, presence of Wnt5a): slightly increased
- stimulation of Wnt signaling [8, 12]: modest stimulation

B4: Dkk-1 mutant having cysteine 220 changed to alanine: Dkk-1 mutant having cysteine 220 changed to alanine (protein, UniProt O94907 32-266, looked up, variant C220A)
Dickkopf-related protein 1: TLNSVLNSNAIKNLPPPLGGAAGHPGSAVSAAPGILYPGGNKYQTIDNYQPYPCAEDEECGTDEYCASPTRGGDAGVQICLACRKRRKRCMRHAMCCPGNYCKNGICVSSDQNHFRGEIEETITESFGNDHSTLDGYSRRTTLSSKMYHTKGQEGSVCLRSSDCASGLCCARHFWSKICKPVLKEGQVATKHRRKGSHGLEIFQRCYCGEGLSCRIQKDHHQASNSSRLHTCQRH
- repression of Wnt signaling ([2]; Semenov et al.): unable to repress
- LRP6 binding [11]: abolished
